From paper PMC8170832 come the findings set out here.

The assay has as its target endogenous HSF1 (heat shock factor 1), mouse embryonic fibroblasts (mouse (endogenous in MEFs)) (UniProt P38532). Kind of assay: co-IP.
Chain of UniProt P38532 (P38532 whole entry): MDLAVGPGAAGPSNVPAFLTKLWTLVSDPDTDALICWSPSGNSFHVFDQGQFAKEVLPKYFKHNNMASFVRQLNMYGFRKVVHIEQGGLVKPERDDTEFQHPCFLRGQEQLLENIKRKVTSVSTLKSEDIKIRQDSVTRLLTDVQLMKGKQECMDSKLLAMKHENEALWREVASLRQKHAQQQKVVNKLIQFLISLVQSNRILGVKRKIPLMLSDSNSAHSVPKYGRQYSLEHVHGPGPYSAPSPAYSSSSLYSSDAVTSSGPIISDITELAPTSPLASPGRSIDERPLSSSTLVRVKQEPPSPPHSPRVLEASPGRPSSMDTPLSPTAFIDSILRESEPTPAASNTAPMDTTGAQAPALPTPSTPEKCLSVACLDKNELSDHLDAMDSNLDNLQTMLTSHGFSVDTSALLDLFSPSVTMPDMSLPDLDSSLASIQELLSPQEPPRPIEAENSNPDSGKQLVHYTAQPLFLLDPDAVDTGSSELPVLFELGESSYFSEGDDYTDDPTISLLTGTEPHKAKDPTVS

Consider “endogenous AMPK (AMP-activated protein kinase), mouse embryonic fibroblasts (from UniProt Q5EG47 1-559; Q9R078 1-270; Q91WG5 1-566) (complex)”, for which the percent of total cellular AMPKα depleted by IP of HSF1 was 66%.
For “endogenous phospho-AMPKα (Thr172), mouse embryonic fibroblasts (from UniProt Q5EG47 1-559; Q9R078 1-270; Q91WG5 1-566) (complex)”, the percent of phospho-AMPKα depleted by IP of HSF1 worked out at 25%.
